Measured values reported in article PMC3798688, “A Structural Basis for BRD2/4-Mediated Host Chromatin Interaction and Oligomer Assembly of Kaposi Sarcoma-Associated Herpesvirus and Murine Gammaherpesvirus LANA Proteins” (PLoS Pathogens, 2013).

B1: kLANA(996–1153) (domain or fragment)
chain: GSGVRMRRVPVTHPKKPHPRYQQPPVPYRQIDDCPAKARPQHIFYRRFLGKDGRRDPKCQWKFAVIFWGNDPYGLKKLSQAFQFGGVKAGPVSCLPHPGPDQSPITYCVYVYCQNKDTSKKVQMARLAWEASHPLAGNLQSSIVKFKKPLPLTQPGENQG
notes: source: E. coli BL21(DE3), purified (Ni-NTA with guanidine gradient, thrombin cleavage)

Legend:
crystal structure = target: the molecule itself; assay: crystal structure
kLANA(996–1153) = target: B1; assay: NMR titration; conditions: both partners purified
[1] = target: the molecule itself; assay: asymmetric field flow fractionation with multi-angle static light scattering; 40 µg protein per run; 10 mM bis-tris-Cl pH 6.5, 50 mM NaCl, 0.01% NaN3

Binder	stoichiometry N (crystal structure)	binding result (kLANA(996–1153))	stoichiometry N [1]
mLANA(124–260) (domain or fragment, source: E. coli BL21(DE3), purified (Ni-NTA with guanidine gradient, thrombin cleavage)) GSKRYSRYQKPHNPSDPLPKKYQGMRRHLQVTAPRLFDPEGHPPTHFKSAVMFSSTHPYTLNKLHKCIQSKHVLSTPVSCLPLVPGTTQQCVTYYLLSFVEDKKQAKKLKRVVLAYCEKYHSSVEGTIVKAKPYFPLPE	2	–	–
15N-BRD2 ET(632–713), with N-terminal GSGS (domain or fragment, also called 15N-BRD2(632–713); source: E. coli BL21(DE3), purified (Ni-NTA with guanidine gradient, thrombin cleavage)) GSGSDSEEEEESRPMSYDEKRQLSLDINKLPGEKLGRVVHIIQAREPSLRDSNPEEIEIDFETLKPSTLRELERYVLSCLRKKPRK	–	binds	–
B1	8	–	–
kLANA(1013–1149) (domain or fragment, source: E. coli BL21(DE3), purified (Ni-NTA with guanidine gradient, thrombin cleavage)) GSRYQQPPVPYRQIDDCPAKARPQHIFYRRFLGKDGRRDPKCQWKFAVIFWGNDPYGLKKLSQAFQFGGVKAGPVSCLPHPGPDQSPITYCVYVYCQNKDTSKKVQMARLAWEASHPLAGNLQSSIVKFKKPLPLTQPG	10	–	2
